molecular target: human Factor IXa (human, UniProt P00740 47-191; P00740 227-461); test: cell-based or functional assay

| Binder | EC50 [µM], FXa generation assay |
| --- | --- |
| WHERQQLTCLASYCGLFVGQVA | < 0.5 µM |
| RYQRARLTCLASYCGLLFSMSA | > 15 µM |
| AVAINKVPCVASYCQLFESKIH | > 20 µM |
| AWPYHKPTCLASQCWQFLAQGS | > 50 µM |
| SYGRTKLTCLASSCWLFGQVHG | > 10 µM |
| GVEDRQLTCLASSCWVFSRHSV | > 1 µM |
| RSFTSELTCLASSCRRFHHVPP | > 20 µM |
| AQLRRKLTCLASYCWLFGFFSP | > 1 µM |
| GGALQQLTCPASYCWLFPMEHS | > 10 µM |
| HYARVQLRCLDGYCWLLTKSRM | > 10 µM |
| YARDSTLTCQARTCQLVDYLGP | > 50 µM |
| QGQARKLACLASYCWLFPSSAG | > 50 µM |
| APPGGKRMCLVSGCQLFPWSAS | > 50 µM |
| QDGDGKLTCRASYCRRFLVGVH | > 50 µM |
| GIQGSEVACRASFCRLFEQGHV | > 50 µM |
| RFQTTQLTCLGSASCLFNLSVR | > 1 µM |
| RRAPGKLQCLASYCWLFWTGAA | > 1 µM |
| GFGSRKLTSLASYGWLIQDRLP | > 50 µM |
| SGRGGKLTCQASFCQLFGNGLS | < 0.5 µM |
| EGRRDKLTCLASYCWLVGHGQH | > 25 µM |
| LLQIPNLTCLGSYCWLDNGVYA | > 50 µM |
| GEGGGKLSCVAIQCGLFKGLGR | > 50 µM |
| VDKGHQLRCQAGYCWLLGYNRE | > 50 µM |
| SGFGMKLTCLASYCGLFQGEIG | < 0.5 µM |
| RRAPGKLQCLASYCWLFWTAIA | < 0.5 µM |

Source: patent US20140303084A1 (Biogen, published 2014)
